Laboratory results from publication PMC10167749.

Target: recombinant scavenger receptor cysteine-rich domain 1 of Gp340 (salivary agglutinin), expressed in insect cells (UniProt Q9UGM3)
Assay: SPR; Biacore T200; iSRCR1 immobilised on a CM5 chip by amine coupling; analyte GtfB-CD 2-8 uM in 20 mM HEPES pH 7.4, 150 mM NaCl, 1 mM CaCl2, 20 ul/min; each concentration in triplicate; kinetic fit with Biacore Insight Evaluation software

Chain of recombinant scavenger receptor cysteine-rich domain 1 of Gp340 (salivary agglutinin), expressed in insect cells (Q9UGM3 20-2413): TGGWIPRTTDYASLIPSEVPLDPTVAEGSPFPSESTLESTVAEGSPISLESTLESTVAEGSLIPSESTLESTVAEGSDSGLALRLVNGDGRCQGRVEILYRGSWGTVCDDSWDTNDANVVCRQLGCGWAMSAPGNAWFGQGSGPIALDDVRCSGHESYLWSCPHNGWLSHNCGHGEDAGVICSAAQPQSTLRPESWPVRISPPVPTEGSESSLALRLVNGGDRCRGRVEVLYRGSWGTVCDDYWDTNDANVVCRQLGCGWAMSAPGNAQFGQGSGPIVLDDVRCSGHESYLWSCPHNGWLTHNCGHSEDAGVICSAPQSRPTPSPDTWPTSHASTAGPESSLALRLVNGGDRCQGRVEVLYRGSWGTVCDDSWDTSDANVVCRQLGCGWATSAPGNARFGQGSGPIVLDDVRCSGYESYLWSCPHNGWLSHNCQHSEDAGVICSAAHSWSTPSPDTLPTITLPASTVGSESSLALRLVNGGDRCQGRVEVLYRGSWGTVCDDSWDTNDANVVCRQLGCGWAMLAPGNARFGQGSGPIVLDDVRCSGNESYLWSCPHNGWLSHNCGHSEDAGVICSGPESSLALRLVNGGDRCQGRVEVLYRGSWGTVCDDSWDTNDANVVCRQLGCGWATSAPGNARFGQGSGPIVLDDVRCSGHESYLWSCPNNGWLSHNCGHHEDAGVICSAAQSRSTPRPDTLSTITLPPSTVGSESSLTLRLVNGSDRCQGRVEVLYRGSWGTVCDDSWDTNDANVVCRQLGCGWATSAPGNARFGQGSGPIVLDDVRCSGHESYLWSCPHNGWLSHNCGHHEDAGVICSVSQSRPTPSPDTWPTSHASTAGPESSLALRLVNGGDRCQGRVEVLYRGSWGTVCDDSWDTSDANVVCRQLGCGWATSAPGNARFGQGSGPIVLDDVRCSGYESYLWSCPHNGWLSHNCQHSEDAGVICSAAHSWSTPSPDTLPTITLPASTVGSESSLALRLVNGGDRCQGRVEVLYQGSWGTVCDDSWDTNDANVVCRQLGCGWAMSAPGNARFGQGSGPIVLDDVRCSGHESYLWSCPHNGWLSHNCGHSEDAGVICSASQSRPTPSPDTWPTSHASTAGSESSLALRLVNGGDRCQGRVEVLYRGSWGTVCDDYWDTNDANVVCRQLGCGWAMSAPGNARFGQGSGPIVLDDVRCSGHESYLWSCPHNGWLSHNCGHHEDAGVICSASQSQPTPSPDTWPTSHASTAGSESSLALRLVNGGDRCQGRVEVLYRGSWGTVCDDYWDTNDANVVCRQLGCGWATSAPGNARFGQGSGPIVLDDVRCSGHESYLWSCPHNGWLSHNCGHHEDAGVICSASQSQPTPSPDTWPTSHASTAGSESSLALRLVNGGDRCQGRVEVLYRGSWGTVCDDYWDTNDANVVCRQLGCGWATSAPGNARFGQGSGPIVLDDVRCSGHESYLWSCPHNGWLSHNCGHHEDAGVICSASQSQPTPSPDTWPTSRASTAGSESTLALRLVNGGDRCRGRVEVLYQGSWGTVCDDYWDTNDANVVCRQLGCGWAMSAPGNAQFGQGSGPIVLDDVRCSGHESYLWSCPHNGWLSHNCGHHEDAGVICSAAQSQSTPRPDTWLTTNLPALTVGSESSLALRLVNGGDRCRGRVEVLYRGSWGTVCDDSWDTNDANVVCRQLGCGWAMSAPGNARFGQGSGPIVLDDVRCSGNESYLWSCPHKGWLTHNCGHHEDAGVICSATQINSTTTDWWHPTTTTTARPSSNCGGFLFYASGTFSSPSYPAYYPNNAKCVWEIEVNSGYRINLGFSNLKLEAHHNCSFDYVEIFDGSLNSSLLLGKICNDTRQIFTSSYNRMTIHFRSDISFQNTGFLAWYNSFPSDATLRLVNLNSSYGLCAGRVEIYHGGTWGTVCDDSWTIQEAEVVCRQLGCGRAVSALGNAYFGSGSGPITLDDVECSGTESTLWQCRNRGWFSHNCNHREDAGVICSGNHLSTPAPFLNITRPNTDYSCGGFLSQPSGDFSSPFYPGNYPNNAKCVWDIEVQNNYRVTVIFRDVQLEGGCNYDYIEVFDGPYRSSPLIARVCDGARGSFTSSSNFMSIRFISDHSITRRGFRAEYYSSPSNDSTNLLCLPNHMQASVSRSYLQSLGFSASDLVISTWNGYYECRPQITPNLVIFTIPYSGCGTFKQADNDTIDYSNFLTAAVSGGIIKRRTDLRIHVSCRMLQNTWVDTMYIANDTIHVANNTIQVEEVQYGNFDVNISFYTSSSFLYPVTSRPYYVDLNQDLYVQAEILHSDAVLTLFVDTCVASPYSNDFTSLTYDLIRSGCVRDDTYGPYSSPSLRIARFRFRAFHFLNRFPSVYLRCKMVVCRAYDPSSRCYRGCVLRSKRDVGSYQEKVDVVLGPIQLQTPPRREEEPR

B1: catalytic domain of Streptococcus mutans (UA159) glucosyltransferase GtfB, residues 191-1051 (domain or fragment)
chain: LHFDETGAYTDTSIDTVNKDIVTTRSNLYKKYNQVYDRSAQSFEHVDHYLTAESWYRPKYILKDGKTWTQSTEKDFRPLLMTWWPSQETQRQYVNYMNAQLGINKTYDDTSNQLQLNIAAATIQAKIEAKITTLKNTDWLRQTISAFVKTQSAWNSDSEKPFDDHLQNGAVLYDNEGKLTPYANSNYRILNRTPTNQTGKKDPRYTADNTIGGYEFLLANDVDNSNPVVQAEQLNWLHFLMNFGNIYANDPDANFDSIRVDAVDNVDADLLQIAGDYLKAAKGIHKNDKAANDHLSILEAWSDNDTPYLHDDGDNMINMDNKLRLSLLFSLAKPLNQRSGMNPLITNSLVNRTDDNAETAAVPSYSFIRAHDSEVQDLIRDIIKAEINPNVVGYSFTMEEIKKAFEIYNKDLLATEKKYTHYNTALSYALLLTNKSSVPRVYYGDMFTDDGQYMAHKTINYEAIETLLKARIKYVSGGQAMRNQQVGNSEIITSVRYGKGALKATDTGDRTTRTSGVAVIEGNNPSLRLKASDRVVVNMGAAHKNQAYRPLLLTTDNGIKAYHSDQEAAGLVRYTNDRGELIFTAADIKGYANPQVSGYLGVWVPVGAAADQDVRVAASTAPSTDGKSVHQNAALDSRVMFEGFSNFQAFATKKEEYTNVVIAKNVDKFAEWGVTDFEMAPQYVSSTDGSFLDSVIQNGYAFTDRYDLGISKPNKYGTADDLVKAIKALHSKGIKVMADWVPDQMYAFPEKEVVTATRVDKFGKPVEGSQIKSVLYVADSKSSGKDQQAKYGGAFLEELQAKYPELFARKQISTGVPMDPSVKIKQWSAKYFNGTNILGRGAGYVLKDQATNTYFNISDNK
Which koff does the source give for B1 here?
The koff was 0.00152 s⁻¹.

What about the kon of the same binder?
Its kon is 2990 M⁻¹ s⁻¹.
